In US11357847B2, “Modified HSV gD protein and vaccine containing same” (KM Biologics Co., Ltd., priority 2017, dated 2022):

Columns and labels:
[1] = tested on: various anti-gD2 antibodies; assay: Reactivity of gD variants with anti-gD2 antibodies (competitive ELISA); assay type: binding, human; details: for Relative reactivity with antibody No. 82 (gD1-315 wild-type set to 1): FIG. 13; for Reactivity with anti-gD2 antibody 1 / Reactivity with anti-gD2 antibody 5 / Reactivity with anti-gD2 antibody 13 / Reactivity with anti-gD2 antibody 72 / Reactivity with anti-gD2 antibody 75 / Reactivity with anti-gD2 antibody 78 / Reactivity with anti-gD2 antibody 82: immobilized gD variant
Text: Each anti-gD2 monoclonal antibody and each gD variant were expressed using an Expi293 expression system.

HSV-2 MS strain = assay: Mouse infection-prevention test of modified gD (genital herpes infection model); assay type: in vivo, BALB/c mice; design: key to Determination (vs gD1-315) / Determination# (vs gD1-315): ++: minimum effective dose based on the Significant difference test in three-fold common ratio relative to gD1-315(WT) of two or more doses stronger; +: those of one dose stronger; ±: those of an equivalent value
Description: Immunogenicity test of the modified gD antigen was performed using the wild-type gD antigen gD1-315 (WT) as a positive control and saline as a negative control. A predetermined amount of antigen was dissolved in saline for injection (saline) with MPLA (10 μg/mouse) and CpG (1 μg/mouse) and immunized to mice at a volume of 200 μL/mouse. BALB/c mice (5 weeks old, female) were used for the study and immunized subcutaneously in back at 2-week intervals for a total of 3 times (N=4 cases per group). Two weeks after the final immunization (third dose), blood was collected and serum was prepared for each individual. The prepared serum was serially diluted and assessed for neutralizing antibody-inducing activity against HSV-2 (50% plaque number-reducing activity).
An infection-prevention test in the preventive administration of modified gD antigen was performed using a mouse genital herpes infection model. Similar to the mouse immunogenicity test described above, mice were immunized with the number of N=10 cases per group. Depo-Provera was inoculated subcutaneously at 2 mg/mouse 6 days prior to viral inoculation to improve the multiplicity of infection upon viral inoculation 2 weeks after final immunization (third dose). 5×10^5 PFU/20 μL HSV-2 MS strain was inoculated transvaginally under anesthesia and observed for 21 days. Infection prevention ability was evaluated using survival time (survival rate) as index.
The infection model of the mouse genital herpes infection model was used to evaluate infection prevention ability of various modified gD in preventive administration. The number of animal cases in each group was set to n=10, and wild-type gD (gD1-315) was used as a positive control and saline was used as a negative control. The experiments were performed a total of four times (experiments 1-4) and four doses of 0.1 μg/mouse/time, 0.03 μg/mouse/time, 0.01 μg/mouse/time and 0.003 μg/mouse/time were set for all of the positive control, negative control, and subject modified gD antigen. Depo-Provera was inoculated subcutaneously at 2 mg/mouse 6 days prior to viral inoculation to improve the multiplicity of infection upon viral inoculation 2 weeks after final immunization (third dose). 5×10^5 PFU/20 HSV-2 MS strain was inoculated transvaginally under anesthesia and observed for 21 days. Infection prevention ability was evaluated using survival time (survival rate) as index. Mean values of those were plotted in the graph. A Significant difference test for the negative control group was performed by the Kaplan-Meier method, and those with a minimum effective dose based on the Significant difference test in three-fold common ratio relative to wild type gD of two or more doses stronger were determined to be “++”, those of one dose stronger were determined to be “+”, and those of an equivalent value were determined to be “±”.

[2] = Experiment 2, 0.003 μg/head/time
[3] = Experiment 2, 0.01 μg/head/time
[4] = Experiment 2, 0.03 μg/head/time
[5] = Experiment 1, 0.003 μg/head/time
[6] = Experiment 1, 0.01 μg/head/time
[7] = Experiment 1, 0.03 μg/head/time
[8] = Experiment 4, 0.01 μg/head/time
[9] = Experiment 4, 0.03 μg/head/time
[10] = Experiment 4, fourth dose line, 0.03 μg/head/time

| Molecule | Relative reactivity with antibody No. 82 (gD1-315 wild-type set to 1) [1] | Reactivity with anti-gD2 antibody 1 [1] | Reactivity with anti-gD2 antibody 5 [1] | Reactivity with anti-gD2 antibody 13 [1] | Reactivity with anti-gD2 antibody 72 [1] | Reactivity with anti-gD2 antibody 75 [1] | Reactivity with anti-gD2 antibody 78 [1] | Reactivity with anti-gD2 antibody 82 [1] | also measured |
| --- | --- | --- | --- | --- | --- | --- | --- | --- | --- |
| gD1-315v3-55V: Table 12: glycochain D, F, T cell epitope peptide and V231W (protein, left off: small tags and cut ends) KYALADPSLKMADPNRFRGKNLPVLDQLTDPPGVKRVYHIQPSLEDPFQNASIPITVYYAVLERACRSVLLHAPSEAPQIVRGASDEARKHTYNLTIAWYRMGDNCAIPITVMEYTECPYNKSLGVCPIRTQPRWSYYDSFSAVSEDNLGFLMHAPAFETAGTYLRLVKINDWTEITQFILEHRARASCKYALPLRIPPAACLTSKAYQQGVTVDSIGMLPRFIPENQRTWALYSLKIAGWHGPKPPYTSTLLPPELSDTTNATQPELVPEDPEDSALLEDPAGTVSSQIPPNWHIPSIQDVAPHHAPAAPSNPGGPGPGIAFWVRRRAQMAPKPLRIAFWVRRRAQMAPKPLRHHHHHH | slightly reduced | + ((+): 70% or more) | − ((−): less than 30%) | + ((+): 70% or more) | ± ((±): 30% or more and less than 70%) | ± ((±): 30% or more and less than 70%) | − ((−): less than 30%) | + ((+): 70% or more) | Mean survival time (HSV-2 MS strain; [2]): 7 days; Significant difference test (vs saline) (HSV-2 MS strain; [2]): N.S.; Mean survival time (HSV-2 MS strain; [3]): >16.5 days; Significant difference test (vs saline) (HSV-2 MS strain; [3]): N.S.; Mean survival time (HSV-2 MS strain; [4]): >22 days; Significant difference test (vs saline) (HSV-2 MS strain; [4]): ** (** 0.001 = < p < 0.01); Mean survival time (HSV-2 MS strain; Experiment 2, 0.1 μg/head/time): >22 days; Significant difference test (vs saline) (HSV-2 MS strain; Experiment 2, 0.1 μg/head/time): *** (*** p < 0.001); Determination# (vs gD1-315) (HSV-2 MS strain; Experiment 2, minimum effective dose relative to gD1-315(WT)): + |
| gD1-315v5-55V: gD1-315 with glycochains at SC-A, SC-F, T cell epitope peptide DP5 and V231W (protein, left off: small tags and cut ends) KYALADPSLKMADPNRFRGKNLPVLDQLTDPPGVKRVYHIQPSLEDPFQNASIPITVYYAVLERACRSVLLHAPSEAPQIVRGASDEARKHTYNLTIAWYRMGDNCAIPITVMEYTECPYNKSLGVCPIRTQPRWSYYDSFSAVSEDNLGFLMHAPAFETAGTYLRLVKINDWTEITQFILEHRANASCKYALPLRIPPAACLTSKAYQQGVTVDSIGMLPRFIPENQRTWALYSLKIAGWHGPKPPYTSTLLPPELSDTTNATQPELVPEDPEDSALLEDPAGTVSSQIPPNWHIPSIQDVAPHHAPAAPSNPGGPGPGIAFWVRRRAQMAPKPLRIAFWVRRRAQMAPKPLRHHHHHH | slightly reduced | + ((+): 70% or more) | − ((−): less than 30%) | + ((+): 70% or more) | + ((+): 70% or more) | − ((−): less than 30%) | − ((−): less than 30%) | + ((+): 70% or more) | Mean survival time (HSV-2 MS strain; [5]): 10 days; Significant difference test (vs saline) (HSV-2 MS strain; [5]): ** (** 0.001 = < p < 0.01); Mean survival time (HSV-2 MS strain; [6]): >21 days; Significant difference test (vs saline) (HSV-2 MS strain; [6]): *** (*** p < 0.001); Mean survival time (HSV-2 MS strain; [7]): >21 days; Significant difference test (vs saline) (HSV-2 MS strain; [7]): *** (*** p < 0.001); Mean survival time (HSV-2 MS strain; Experiment 1, 0.1 μg/head/time): >21 days; Significant difference test (vs saline) (HSV-2 MS strain; Experiment 1, 0.1 μg/head/time): *** (*** p < 0.001); Determination (vs gD1-315) (HSV-2 MS strain; Experiment 1, minimum effective dose relative to gD1-315(WT)): ++; Mean survival time (HSV-2 MS strain; [8]): >21 days; Significant difference test (vs saline) (HSV-2 MS strain; [8]): * (* 0.01 = < p < 0.05); Mean survival time (HSV-2 MS strain; [9]): >21 days; Significant difference test (vs saline) (HSV-2 MS strain; [9]): *** (*** p < 0.001); Mean survival time (HSV-2 MS strain; Experiment 4, 0.1 μg/head/time): >21 days; Significant difference test (vs saline) (HSV-2 MS strain; Experiment 4, 0.1 μg/head/time): *** (*** p < 0.001); Mean survival time (HSV-2 MS strain; [10]): 8.5 days; Significant difference test (vs saline) (HSV-2 MS strain; [10]): N.S.; Determination# (vs gD1-315) (HSV-2 MS strain; Experiment 4, minimum effective dose relative to gD1-315(WT)): ++ |
| gD1-315V (protein) KYALADPSLKMADPNRFRGKNLPVLDQLTDPPGVKRVYHIQPSLEDPFQPPSIPITVYYAVLERACRSVLLHAPSEAPQIVRGASDEARKHTYNLTIAWYRMGDNCAIPITVMEYTECPYNKSLGVCPIRTQPRWSYYDSFSAVSEDNLGFLMHAPAFETAGTYLRLVKINDWTEITQFILEHRARASCKYALPLRIPPAACLTSKAYQQGVTVDSIGMLPRFIPENQRTWALYSLKIAGWHGPKPPYTSTLLPPELSDTTNATQPELVPEDPEDSALLEDPAGTVSSQIPPNWHIPSIQDVAPHHAPAAPSNPGHHHHHH | – | + ((+): 70% or more) | + ((+): 70% or more) | + ((+): 70% or more) | + ((+): 70% or more) | + ((+): 70% or more) | + ((+): 70% or more) | + ((+): 70% or more) | – |
| gD1-315v5V: gD1-315 with glycochains at SC-A, SC-F and V231W (protein) KYALADPSLKMADPNRFRGKNLPVLDQLTDPPGVKRVYHIQPSLEDPFQNASIPITVYYAVLERACRSVLLHAPSEAPQIVRGASDEARKHTYNLTIAWYRMGDNCAIPITVMEYTECPYNKSLGVCPIRTQPRWSYYDSFSAVSEDNLGFLMHAPAFETAGTYLRLVKINDWTEITQFILEHRANASCKYALPLRIPPAACLTSKAYQQGVTVDSIGMLPRFIPENQRTWALYSLKIAGWHGPKPPYTSTLLPPELSDTTNATQPELVPEDPEDSALLEDPAGTVSSQIPPNWHIPSIQDVAPHHAPAAPSNPGHHHHHH | – | + ((+): 70% or more) | − ((−): less than 30%) | + ((+): 70% or more) | ± ((±): 30% or more and less than 70%) | ± ((±): 30% or more and less than 70%) | − ((−): less than 30%) | + ((+): 70% or more) | – |
| gD1-315v3: gD1-315 with glycochain introduced at P50 (SC-F) (protein) KYALADPSLKMADPNRFRGKNLPVLDQLTDPPGVKRVYHIQPSLEDPFQNASIPITVYYAVLERACRSVLLHAPSEAPQIVRGASDEARKHTYNLTIAWYRMGDNCAIPITVMEYTECPYNKSLGVCPIRTQPRWSYYDSFSAVSEDNLGFLMHAPAFETAGTYLRLVKINDWTEITQFILEHRARASCKYALPLRIPPAACLTSKAYQQGVTVDSIGMLPRFIPENQRTVALYSLKIAGWHGPKPPYTSTLLPPELSDTTNATQPELVPEDPEDSALLEDPAGTVSSQIPPNWHIPSIQDVAPHHAPAAPSNPGHHHHHH | – | + ((+): 70% or more) | − ((−): less than 30%) | + ((+): 70% or more) | − ((−): less than 30%) | − ((−): less than 30%) | − ((−): less than 30%) | + ((+): 70% or more) | – |
